In article PMC3510498, “RecOR complex including RecR N-N dimer and RecO monomer displays a high affinity for ssDNA”:

Assays:
TTERecO = TTERecO (Thermoanaerobacter tengcongensis MB4, UniProt Q8RB48 1-247); assay: EMSA; 10 uM protein, 2 uM DNA; SPR: 20 mM HEPES pH 7.4, 200 mM NaCl, 0.005% Tween 20, 25 C, SA chip; EMSA: 20 mM HEPES pH 7.4, 200 mM NaCl, 25 C, 30 min, 2 uM DNA; settings: protein: recombinant; tags: N-terminal His6; label: 5' biotin (SPR)
TTERecR;TTERecO = TTERecR;TTERecO (Thermoanaerobacter tengcongensis …, UniProt Q8RDI4;Q8RB48 1-199;1-247, |); assay: SPR; SPR: 20 mM HEPES pH 7.4, 200 mM NaCl, 0.005% Tween 20, 25 C, SA chip; EMSA: 20 mM HEPES pH 7.4, 200 mM NaCl, 25 C, 30 min, 2 uM DNA
TTERecR = TTERecR (Thermoanaerobacter tengcongensis MB4, UniProt Q8RDI4 1-199); assay: as above
TTERecR R25G;TTERecO = TTERecR R25G;TTERecO (Thermoanaerobacter tengcongensis …, UniProt Q8RDI4;Q8RB48 1-199;1-247, R28G|); assay: SPR; as strong as RecOR; SPR: 20 mM HEPES pH 7.4, 200 mM NaCl, 0.005% Tween 20, 25 C, SA chip; EMSA: 20 mM HEPES pH 7.4, 200 mM NaCl, 25 C, 30 min, 2 uM DNA
TTERecR P16G;TTERecO = TTERecR P16G;TTERecO (Thermoanaerobacter tengcongensis …, UniProt Q8RDI4;Q8RB48 1-199;1-247, P19G|); assay: as above
TTERecR R25G = TTERecR R25G (Thermoanaerobacter tengcongensis MB4, UniProt Q8RDI4 1-199, R28G); assay: SPR; SPR: 20 mM HEPES pH 7.4, 200 mM NaCl, 0.005% Tween 20, 25 C, SA chip; EMSA: 20 mM HEPES pH 7.4, 200 mM NaCl, 25 C, 30 min, 2 uM DNA
TTERecR P16G = TTERecR P16G (Thermoanaerobacter tengcongensis MB4, UniProt Q8RDI4 1-199, P19G); assay: as above

| Binder | binding result (TTERecO) | Kd (TTERecR;TTERecO) [nM] | binding result (TTERecR) | binding result (TTERecR R25G;TTERecO) | binding result (TTERecR P16G;TTERecO) | Kd (TTERecR) [nM] | binding result (TTERecR R25G) | binding result (TTERecR P16G) |
| --- | --- | --- | --- | --- | --- | --- | --- | --- |
| 60 mer ssDNA (ssDNA) DNA: ATAAATATCGATGTTAAAGAGGATAAGATTTATAAAATAGCTTCTTATTTTCCTGTAGTA | no binding | 0.931 | no binding | binds | binds |  |  |  |
| 60 mer dsDNA (dsDNA) DNA 1: ATAAATATCGATGTTAAAGAGGATAAGATTTATAAAATAGCTTCTTATTTTCCTGTAGTA DNA 2: TACTACAGGAAAATAAGAAGCTATTTTATAAATCTTATCCTCTTTAACATCGATATTTAT |  | 26.4 |  | binds | binds | 24800 | no binding | no binding |
